According to patent US20080311122A1, “Antagonists of Hmgb1 and/or Rage and Methods of Use Thereof” (Medimmune, LLC, priority 2005, published 2008):

T1: HMG2 (Bos taurus, UniProt P40673)
T1 construct: from tissue; host or cells: calf thymus (as read from the sentence)
T1 sequence (P40673 1-209): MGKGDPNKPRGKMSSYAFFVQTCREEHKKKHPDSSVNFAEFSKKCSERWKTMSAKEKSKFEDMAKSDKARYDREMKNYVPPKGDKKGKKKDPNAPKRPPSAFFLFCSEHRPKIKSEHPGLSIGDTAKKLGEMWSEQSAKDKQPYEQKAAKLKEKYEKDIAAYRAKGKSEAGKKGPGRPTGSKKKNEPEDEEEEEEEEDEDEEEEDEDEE

T2: recombinant HMG1 binding to RAGE-Fc (Homo sapiens, UniProt P09429)
T2 construct: made in house; host or cells: E. coli (HMG1)
T2 sequence (P09429 1-215): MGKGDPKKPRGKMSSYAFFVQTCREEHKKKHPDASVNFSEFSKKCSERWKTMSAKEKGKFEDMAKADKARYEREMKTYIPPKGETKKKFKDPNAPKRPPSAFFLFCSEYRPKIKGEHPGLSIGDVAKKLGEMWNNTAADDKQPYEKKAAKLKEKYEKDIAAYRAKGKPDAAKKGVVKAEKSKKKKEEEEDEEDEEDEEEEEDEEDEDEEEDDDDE


Key:
HMG2 = molecular target: T1, HMG2; test: Binding to HMG1 vs. HMG2 ELISA; parameters: species or system calf; settings: immobilized antigen
Method: Binding to HMG1 vs. HMG2: Ultra high-binding ELISA plates (ThermoLab systems, #3855) were coated with either 5 ug/mL of Calf thymus HMGB1 or HMBG2 diluted in 10 mM Phosphate buffered saline (PBS), pH 7.2 and incubate overnight at 4 degrees. The plates were washed twice with Ca and Mg free PBS and 100 microliters of anti-HMGB1 antibody diluted in 10 mM PBS, pH 7.2+1% bovine serum albumin (BSA) to a final concentration of 10 ug/mL was added to each well and the plates were incubated 1 hour at room temperature. The wells were washed three times with 100 μl of PBS, pH 7.2. HRP labeled goat-anti-human IgG Kappa-chain (KPL, #14-10-10) and goat-anti-human IgG Lambda-chain (KPL, #14-10-11) were diluted in 10 mM PBS+1% BSA 1:1000 and 100 μl were added to each well and incubated for 1 hour at room temperature. The wells were then washed three times with 100 μl of PBS, pH 7.2. OPD substrate (Pierce chemical company, #34006) was prepared following the manufacturers instructions and 100 μl of prepared substrate was added to each well and the plates incubated at room temperature in the dark for 20-30 minutes. The reaction was stopped with the addition of 100 μl of 2M H2SO4, and the plates read on a plate reader at a wavelength of 490 nm.

[1] = Isoelectric focusing gel electrophoresis; assay type: physicochemical
Method: Isoelectric Focusing Gel Electrophoresis: Isoelectric points were determined using a Pharmacia Biotech Multiphor 2 electrophoresis system with a multi temp 3 refrigerated bath recirculation unit and an EPS 3501 XL power supply. Pre-cast ampholine gels (Amersham Biosciences, pI range 2.5-10) were loaded with 5 μg of protein. Broad range pI marker standards (Amersham, pI range 3-10, 8 μL) were used to determine relative pI for the Mabs. Electrophoresis was performed at 1500 V, 50 mA for 105 minutes. The gel was fixed using a Sigma fixing solution (5×) diluted with purified water to 1×. Staining was performed overnight at room temperature using Simply Blue stain (Invitrogen). Destaining was carried out with a solution that consisted of 25% ethanol, 8% acetic acid and 67% purified water. Isoelectric points were determined using a Bio-Rad Densitometer relative to calibration curves of the standards.

[2] = molecular target: T2, recombinant HMG1 binding to RAGE-Fc; test: HMG1 binding to RAGE-Ig by ELISA; settings: at the concentrations tested
Method: HMG1 binding to RAGE-Ig by ELISA: 50 μl/well of RAGE-Fc fusion protein at 5 μg/ml in PBS was added to each well of an ELISA plate and incubated overnight at 4° C. The plate was then blocked with 200 μl of 5% milk at 37° C. for 1 hr and washed 3× with PBS/Tween. 50 μl/well of diluted HMGB1 solution. For dose curves, HMGB1 concentrations started at 4 ug/ml in PBS. For antibody blocking the HMGB1 was preincubated in another plate with human anti-HMG1 antibodies or buffer, then transferred to the RAGE-coated plate. The plates were then incubated at room temperature for 2 hours and washed 3×. To detect any HMG1 bound to the immobilized RAGE-Fc a mixture of biotinylated mouse anti-HMG1 mAbs (10D4, 4H11, 3E10 and 5C12) each at 1 ug/ml, total Ab: 4 ug/ml, were added to each well and the plate was incubated for 1 hour at room temperature. The plate was then washed and Strepavidin-HPR was added to each well and incubated 15 min. The plate was then washed 3× and blotted dry. 100 μl of TMB developing agent was added and the plate read at 650 nm. Values were calculated as percent of inhibition with HMG1 alone equal to 0% inhibition. The data in FIG. 9 and summarized in Table 1 represent the average of two separate experiments.

[3] = tested on: HMG1 (recombinant, native; immobilized, soluble); test: Direct and sandwich (capture) ELISA comparing forms of HMG1; assay type: binding; settings: two ELISA formats, rHMG1
Method: Direct ELISA (immobilized HMG1): Individual wells of a 96-well immunoplate (EIA/RIA plate, High binding, Costar) were coated with HMGB-1 at 5 μg/ml in PBS at 4° C. overnight. The plate was then blocked with 4% milk powder dissolved in PBS at 37° C. for 1 hour. The blocking solution was removed and replaced with human anti-HMG1 antibodies at various concentrations (see FIG. 4A). The plate was then washed (ELX-405 Plate washer, BIO-TEK) and secondary antibody (anti-human IgG-HRP, PIERCE) was added at a final concentration of 1:125,000 at 37° C. for 1 hour. HRP activity was detected with Sureblue HRP substrate (KPL). Plates were read at 450 nm using a Kinetic Microplate Reader (Molecular Devices).
Sandwich ELISA (soluble HMG1): Immunoplates (EIA/RIA plate, High binding, Costar) were coated with anti human IgG Fc at 10 μg/ml in PBS (pH 7.2) and incubated at 4° C. overnight. The coating reagent was removed and the plates were rinsed briefly with PBS. The plates were then blocked with 4% milk for 1 hour at 37° C. and rinsed with PBS. The anti-HMG1 antibodies were diluted in 4% milk. For serial dilutions, the antibodies were used at a starting concentration of 20 μg/ml. The diluted anti-HMG1 antibodies were then added into plate and incubated for 1 hr at 37° C. The plate was then washed 10 times with PBST (PBS/0.1% tween 20) and incubate with antigen (HMGB1, 2 μg/ml; or 0.7 μg/ml for native HMGB1) in 4% milk and incubated at 37° C. for 1 h. The plate was then wash 10 times and incubated with mouse anti-HMGB1, 1 μg/ml in 4% milk at 37° C. for 1 h. The plate was washed 10 times and incubated with anti-mouse IgG-HRP at 1:1000 at 37° C. for 1 h. The plate was then washed and developed. HRP activity was detected with Sureblue HRP substrate (KPL). Plates were read at 450 nm using a Kinetic Microplate Reader (Molecular Devices).

Row | Molecule | relative binding to HMG1 and HMG2 (HMG2) | PI [1] | block of recombinant HMG1 binding to RAGE [2] | binding to immobilized versus soluble HMG1 [3]
1 | G2: human anti-HMG1 IgG1 from Fab phage display library; VL/VH aa SEQ ID NO: 30/32 (antibody, listed as Homo sapiens, V domains shown) VH: EVQLLESGGGLVQPGGSLRLSCAASGFTFSWYKMQWVRQAPGKGLEWVSGISPSGGSTAYADSVKGRFTISRDNSKNTLYLQMNSLRAEDTAVYYCAKMGLFNTGNSYVDYWGQGTLVTVSS VL: AQSELTQPPSVSEAPGQRVTISCSGSTSNIGNNAVIWYQQLPGKAPKLLIYYDDLLPSGVSDRFSGSKSGTSGSLAISGLQSEDEADYYCASWDDNLNGPLFGGGTKLTVL | specific for HMG1 | 7.78 | significant ability to block the binding of HMG1 to RAGE | little difference in binding to immobilized or soluble HMG1
2 | S17: human anti-HMG1 antibody; VL/VH aa SEQ ID NO: 70/72 (antibody, listed as Homo sapiens, V domains shown) VH: EVQLLESGGGLVQPGGSLRLSCAASGFTFSYYDMHWVRQAPGKGLEWVSRISPSGGYTWYADSVKGRFTISRDNSKNTLYLQMNSLRAEDTAVYYCTRGRYTSGWHEYFDPWGQGTLVTVSS VL: AQDIQMTQSPSSLSASVGDRVTITCRASQSIGTYLNWYQQKPGTAPKVLIYAASSLQSGVPSRFSGSGSGTDFTLTISSLQPEDFSTYYCQQSYNTPRTFGQGTKLEIK | specific for HMG1 | 8.7 | do not at the concentrations tested | to a lesser extent S17 have a higher affinity for soluble HMG1
